The text below walks through data of publication PMC11662666 (Nucleic Acids Research, 2024).

Where “and” joins values, the source holds several entries; their conditions need not be identical. Equal values may be shown once.

The target of data set [1] is Giardia intestinalis deoxyadenosine kinase lacking the C-terminus (dAK-ΔC, amino acids 1-232) (Giardia intestinalis (assemblage A isolate WB)). In words: mass photometry; Refeyn 2MP, protein in PBS; 50 nM by the methods, 65 nM by the results.
For data set [2], the target named is Giardia intestinalis deoxyadenosine kinase (Giardia intestinalis (assemblage A isolate WB)). Described as above.
Data set [3] has the same target. The data set is described as follows: crystal structure + cryo-EM structure.
Data set [4] shares this target. The data set is described as follows: SEC; Superdex 200 10/300 GL, 150 mM KCl, 50 mM Tris-HCl pH 7.6, 0.4 ml/min; protein at 0.1 mg/ml (4 μM); mass from a standard curve. For orientation: In gel filtration, larger molecules generally elute earlier.
Data set [5] concerns the target Giardia intestinalis deoxyadenosine kinase lacking the N-terminus (dAK-ΔN, amino acids 30-251) (Giardia intestinalis (assemblage A isolate WB)). In words: mass photometry; Refeyn 2MP, protein in PBS; 50 nM by the methods, 65 nM by the results.
Data set [6] has as its target T1, deoxyadenosine kinase (dAK) (Giardia duodenalis, UniProt A8B9V6).
T1 sequence (A8B9V6 1-251): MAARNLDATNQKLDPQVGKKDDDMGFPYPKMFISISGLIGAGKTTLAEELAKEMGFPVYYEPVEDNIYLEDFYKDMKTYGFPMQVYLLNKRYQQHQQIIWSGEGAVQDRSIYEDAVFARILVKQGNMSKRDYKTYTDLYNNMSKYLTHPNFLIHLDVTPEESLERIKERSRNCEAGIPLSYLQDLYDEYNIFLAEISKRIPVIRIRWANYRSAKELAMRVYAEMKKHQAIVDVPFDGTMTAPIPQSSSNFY
In words: X-ray crystal structure at […] Å (co-purified ligand); HPLC of bound nucleotides; enzyme inhibition. The class given is binding. Set-up: gene GL50803_0017451; full-length dAK (untagged after TEV cleavage).

Data set [7] has as its target T1, deoxyadenosine kinase (dAK). The data set is described as follows: enzyme inhibition kinetics with purified dAK; co-purified dATP seen by HPLC. The class given is biochemical. Also on record: gene GL50803_0017451; full-length dAK.
Data set [8] concerns the target Giardia intestinalis deoxyadenosine kinase lacking the N- and C-termini (dAK-ΔNΔC, amino acids 30-232) (Giardia intestinalis (assemblage A isolate WB)). The data set is described as follows: mass photometry; Refeyn 2MP, protein in PBS; 50 nM by the methods, 65 nM by the results.
Substrate in data set [9]: Nc1ncnc2c1ncn2[C@@H]1O[C@H](CO)[C@@H](O)[C@@H]1F
The data set is described as follows: steady-state kinetics with purified enzyme, HPLC (KM). The note with it: ATP and Mg2+ (phosphate donor in assay). It counts as biochemical, Giardia duodenalis.

Substrate in data set [10]: Nc1ncnc2c1ncn2[C@@H]1O[C@H](CO)[C@@H](O)[C@@H]1O
Described as above. Particulars: ATP and Mg2+ (phosphate donor in assay). It counts as biochemical, Giardia duodenalis.

Substrate in data set [11]: Nc1nc(Cl)nc2c1ncn2[C@@H]1O[C@H](CO)[C@@H](O)[C@@H]1F
The description is as above. The class given is biochemical, Giardia duodenalis. Particulars: ATP and Mg2+ (phosphate donor in assay).

Substrate in data set [12]: Nc1nc(F)nc2c1ncn2[C@@H]1O[C@H](CO)[C@@H](O)[C@@H]1O
Described as above. The class given is biochemical, Giardia duodenalis. Particulars: ATP and Mg2+ (phosphate donor in assay).

Substrate in data set [13]: Nc1nc(I)nc2c1ncn2[C@H]1C[C@H](O)[C@@H](CO)O1
The description is as above. The class given is biochemical, Giardia duodenalis. The note with it: ATP and Mg2+ (phosphate donor in assay).

Substrate in data set [14]: Nc1ncnc2c1ncn2[C@H]1C[C@H](O)[C@@H](CO)O1
In words: purified protein. Particulars: ATP and Mg2+ (phosphate donor in assay) active site.

Substrate in data set [15]: Nc1nc(Cl)nc2c1ncn2[C@H]1C[C@H](O)[C@@H](CO)O1
In words: purified protein. The note with it: ATP and Mg2+ (phosphate donor in assay) active site (2-Cl towards F72, modelled).

On to “Giardia intestinalis deoxyadenosine kinase lacking the C-terminus (dAK-ΔC, amino acids 1-232) (domain or fragment)”, for which the stoichiometry N (usually the number of molecules, sites or subunits per partner or assembly) in [1] is 2 and 4.
As for “Giardia intestinalis deoxyadenosine kinase (enzyme)”, the stoichiometry N in [2], in [3] and in data set [4] was 4 each time.
For the molecule “Giardia intestinalis deoxyadenosine kinase lacking the N-terminus (dAK-ΔN, amino acids 30-251) (domain or fragment)”, the stoichiometry N in [5] was 4 and 2.
Regarding `Nc1ncnc2c1ncn2[C@H]1C[C@H](O)[C@@H](COP(=O)(O)O)O1` [dAMP, deoxyadenosine monophosphate], in data set [6], the “X-ray crystal structure at 2.1 Å (co-purified ligand); HPLC of bound nucleotides” value is reported as “the density for active site II unambiguously allowed for the placement of a dAMP”.
For the molecule `Nc1ncnc2c1ncn2[C@H]1C[C@H](O)[C@@H](COP(=O)(O)OP(=O)(O)OP(=O)(O)O)O1` [dATP, deoxyadenosine triphosphate], the Ki (in general, the equilibrium dissociation constant of an inhibitor or competing ligand from its target) in [7] was 840 ± 220 nM.
With “Giardia intestinalis deoxyadenosine kinase lacking the N- and C-termini (dAK-ΔNΔC, amino acids 30-232) (domain or fragment)”, the stoichiometry N in data set [8] came out at 2.

B1: deoxyadenosine kinase (dAK) (Giardia lamblia ATCC 50803) (protein)
chain: MAARNLDATNQKLDPQVGKKDDDMGFPYPKMFISISGLIGAGKTTLAEELAKEMGFPVYYEPVEDNIYLEDFYKDMKTYGFPMQVYLLNKRYQQHQQIIWSGEGAVQDRSIYEDAVFARILVKQGNMSKRDYKTYTDLYNNMSKYLTHPNFLIHLDVTPEESLERIKERSRNCEAGIPLSYLQDLYDEYNIFLAEISKRIPVIRIRWANYRSAKELAMRVYAEMKKHQAIVDVPFDGTMTAPIPQSSSNFY
notes: full-length dAK
For the molecule B1, the Km (in general, the concentration of substrate that gives half-maximal velocity) worked out at 2.66 ± 0.11 µM in data set [9]; 6.70 ± 0.07 µM in data set [10]; 6.23 ± 1.33 µM in data set [11]; 8.40 ± 0.60 µM in data set [12]; 4.78 ± 0.17 µM in [13]; 1.12 ± 0.37 µM in “purified protein [14]”. The Km in the data set “purified protein [15]” was determined as 0.51 ± 0.08 µM. The Vmax (as a rule, the rate approached at saturating substrate) amounted to 7.64 µmol/min/mg in data set [9]; 6.6 µmol/min/mg in data set [10]; 7.26 µmol/min/mg in [11]; 7.2 µmol/min/mg in data set [12]; 13.7 µmol/min/mg in [13]; 10.3 µmol/min/mg in “purified protein [14]”. Moreover, the maximal velocity (Vmax) in “purified protein [15]” worked out at 5.78 µmol/min/mg. The kcat – broadly, the number of substrate molecules converted per active site and unit of time at saturation – in data set [9] turned out to be 3.69 s⁻¹; in [10], 3.19 s⁻¹; in data set [11], 3.51 s⁻¹; in data set [12], 3.48 s⁻¹; in data set [13], 6.63 s⁻¹; in “purified protein [14]”, 4.96 s⁻¹. Also, the kcat in the data set “purified protein [15]” was 2.79 s⁻¹. Further, the kcat/Km (usually the turnover number divided by the Michaelis constant) in [9] worked out at 1.39e+06 M⁻¹ s⁻¹; in data set [10], 476000 M⁻¹ s⁻¹; in data set [11] it was 563000 M⁻¹ s⁻¹; in data set [12], 414000 M⁻¹ s⁻¹; in data set [13], 1.39e+06 M⁻¹ s⁻¹; in “purified protein [14]” it was 4.43e+06 M⁻¹ s⁻¹. The kcat/Km in “purified protein [15]” amounted to 5.48e+06 M⁻¹ s⁻¹.
